Measured values published in paper PMC3737541, “Structure-function analysis of the EF-hand protein centrin-2 for its intracellular localization and nucleotide excision repair” (Nucleic Acids Research, 2013).
Positions count from the first letter of the chain named. One block for each binder: values may come before it.

Experiments:
[1] = biological target: T1, FLAG-XPC/RAD23B-His complex (human, UniProt Q01831 1-940; P54727 1-409); experiment: cell-based or functional assay
T1 sequence (looked up) 1: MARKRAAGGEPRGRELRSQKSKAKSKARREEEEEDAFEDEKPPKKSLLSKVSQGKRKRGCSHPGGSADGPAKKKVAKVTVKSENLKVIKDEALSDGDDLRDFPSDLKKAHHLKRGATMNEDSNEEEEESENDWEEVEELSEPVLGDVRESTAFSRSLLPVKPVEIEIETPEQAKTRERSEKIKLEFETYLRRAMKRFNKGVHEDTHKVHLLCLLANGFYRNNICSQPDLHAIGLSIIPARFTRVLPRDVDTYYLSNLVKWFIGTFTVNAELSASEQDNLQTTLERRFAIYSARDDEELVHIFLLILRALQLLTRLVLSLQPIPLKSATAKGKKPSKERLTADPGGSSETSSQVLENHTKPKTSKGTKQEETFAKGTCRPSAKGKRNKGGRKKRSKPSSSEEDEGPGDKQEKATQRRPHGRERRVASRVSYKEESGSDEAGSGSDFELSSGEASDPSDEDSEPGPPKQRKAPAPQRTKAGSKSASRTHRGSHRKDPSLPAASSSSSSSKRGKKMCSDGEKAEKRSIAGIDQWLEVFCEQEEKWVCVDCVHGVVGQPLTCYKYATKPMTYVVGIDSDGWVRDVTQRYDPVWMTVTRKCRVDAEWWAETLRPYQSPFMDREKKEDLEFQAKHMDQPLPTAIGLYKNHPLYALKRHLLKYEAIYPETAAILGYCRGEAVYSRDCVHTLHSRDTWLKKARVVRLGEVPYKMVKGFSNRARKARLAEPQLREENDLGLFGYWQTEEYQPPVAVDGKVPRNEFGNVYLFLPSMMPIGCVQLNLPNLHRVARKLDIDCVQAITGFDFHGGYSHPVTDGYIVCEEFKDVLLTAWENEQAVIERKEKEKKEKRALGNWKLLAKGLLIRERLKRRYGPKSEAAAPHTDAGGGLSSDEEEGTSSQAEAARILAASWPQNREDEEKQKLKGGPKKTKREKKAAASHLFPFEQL
T1 sequence (looked up) 2: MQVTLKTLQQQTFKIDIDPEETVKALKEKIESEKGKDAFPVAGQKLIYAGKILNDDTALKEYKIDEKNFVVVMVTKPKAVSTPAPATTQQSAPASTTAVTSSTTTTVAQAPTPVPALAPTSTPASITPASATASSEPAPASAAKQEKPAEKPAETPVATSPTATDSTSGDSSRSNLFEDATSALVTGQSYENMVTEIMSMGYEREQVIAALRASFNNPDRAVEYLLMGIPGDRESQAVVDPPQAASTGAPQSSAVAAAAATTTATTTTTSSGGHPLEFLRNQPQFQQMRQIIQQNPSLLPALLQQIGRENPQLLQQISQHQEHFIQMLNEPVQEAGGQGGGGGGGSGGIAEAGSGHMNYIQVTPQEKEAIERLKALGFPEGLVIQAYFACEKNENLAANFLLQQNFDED

[2] = biological target: T2, FLAG-XPA (human, UniProt P23025 1-273); experiment: pull-down; FLAG-XPA (0.5 µg) immobilised on anti-DDDDK-tag magnetic beads; centrin-2 in buffer B, on ice 1 h; elution with FLAG peptide; immunoblot; no XPC/RAD23B; details: both partners purified
T2 construct: XPA protein, human; also called purified recombinant XPA
T2 sequence (P23025 whole entry): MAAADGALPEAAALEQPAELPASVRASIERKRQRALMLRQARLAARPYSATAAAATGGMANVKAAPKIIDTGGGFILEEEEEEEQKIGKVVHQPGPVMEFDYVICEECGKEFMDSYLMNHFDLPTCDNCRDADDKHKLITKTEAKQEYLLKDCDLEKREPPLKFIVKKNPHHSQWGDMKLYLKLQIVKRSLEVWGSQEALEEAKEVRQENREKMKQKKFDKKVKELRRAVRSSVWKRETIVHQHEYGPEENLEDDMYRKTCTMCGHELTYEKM

[3] = biological target: T1, FLAG-XPC/RAD23B-His complex; experiment: pull-down; purified GST-centrin-2 (WT, N or C) incubated with FLAG-XPC/RAD23B-His, pulled down with anti-FLAG antibody beads; immunoblot; details: both partners purified
[4] = biological target: T1, FLAG-XPC/RAD23B-His complex; experiment: pull-down; FLAG-XPC/RAD23B-His immobilised on anti-FLAG magnetic beads, incubated with centrin-2 (WT or C domain, GST removed), extensive washing, elution with FLAG peptide; reconstituted heterotrimers; details: both partners purified

EMSA: enhancement of the binding of XPC/RAD23B to a 180 bp DNA with a 6-4PP by centrin-2 (WT) [1]: ~2 fold
binding result [2]: binds
B1: centrin-2 (WT), detached from the GST tag (natural protein, human, UniProt P41208 1-172, looked up)
chain: MASNFKKANMASSSQRKRMSPKPELTEEQKQEIREAFDLFDADGTGTIDVKELKVAMRALGFEPKKEEIKKMISEIDKEGTGKMNFGDFLTVMTQKMSEKDTKEEILKAFKLFDDDETGKISFKNLKRVAKELGENLTDEELQEMIDEADRDGDGEVSEQEFLRIMKKTSLY
notes: centrin-2, human, wild type; also called WT centrin-2; full-length protein; source: E. coli BL21 (DE3), purified (GSTrap FF, HiTrap Phenyl FF), GST removed with PreScission protease; not shown: GST, N-terminal, cleaved

binding result [2]: binds
B2: centrin-2 M4 mutant, recombinant (natural protein, human, UniProt P41208 1-172, looked up)
chain: B1 chain with L112A, F113A, L133A, M145A
notes: centrin-2, human, point mutant M4 of the WT protein (intact N domain); also called M4 mutant of centrin-2; source: E. coli BL21 (DE3), purified (GSTrap FF, HiTrap Phenyl FF)

binding result [3]: binds
B3: GST-centrin-2 C domain (domain or fragment, human, UniProt P41208 94-172, looked up)
chain: TQKMSEKDTKEEILKAFKLFDDDETGKISFKNLKRVAKELGENLTDEELQEMIDEADRDGDGEVSEQEFLRIMKKTSLY
notes: centrin-2, human, carboxyl-terminal (C) domain, residues 94-172; source: E. coli BL21 (DE3), purified (GSTrap FF, HiTrap Phenyl FF); not shown: GST, N-terminal, kept

binding result [4]: binds
B4: centrin-2 C domain, detached from the GST tag (domain or fragment, human, UniProt P41208 94-172, looked up)
chain: B3 chain
notes: centrin-2, human, carboxyl-terminal (C) domain, residues 94-172; also called the C domain alone; source: E. coli BL21 (DE3), purified (GSTrap FF, HiTrap Phenyl FF), GST removed with PreScission protease; not shown: GST, N-terminal, cleaved
